This passage reports protein stability index results from the supplement of paper PMC10567573.

± gives the standard deviation.

The series can be described thus: protein stability index of a GFP-peptide fusion (GPS, HEK-293T) (PSI 1-6); higher = more stable. As to conditions: c terminus: a fixed tail appended.
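Further: 24-mer peptide tiles fused after GFP, lentivirally expressed, FACS-sorted into six equal bins by GFP/DsRed ratio, decoded by Illumina sequencing, PSI is the read-weighted mean bin number.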

For the sequence PEGQELQKLGSGAWDNPAYSGPPS [PKD2L1], the protein stability index by setting is: (treatment: DMSO) 4.53 ± 0.35; (treatment: MLN4924 1 uM, 8 h) 4.93 ± 0.36.

In turn, PELLSTHPFFDTAEPDMDDPAYIA [INTS4] returned a protein stability index (treatment: DMSO) of 5.12 ± 0.22 and a protein stability index (treatment: MLN4924 1 uM, 8 h) of 5.16 ± 0.12.

PEPQVPGPAHGPAQEEPWEKKESL [ZNF232] registered a protein stability index (treatment: DMSO) of 5.55 ± 0.29 and a protein stability index (treatment: MLN4924 1 uM, 8 h) of 5.62 ± 0.2.

In the case of PEPVYKLTQRQVNITVQKKVSQWW [HACD3], the protein stability index by setting is: (treatment: DMSO) 2.35 ± 0.49; (treatment: MLN4924 1 uM, 8 h) 2.51 ± 0.31.

In the case of PESKEPVEKEEEPDPEPPPVTPQV [SMG5], the protein stability index by setting is: (treatment: DMSO) 5.54 ± 0.25; (treatment: MLN4924 1 uM, 8 h) 5.46 ± 0.38.

Regarding PFILPDMVGGNAVPQRTAGGDVPE [MYORG], the protein stability index is, setting by setting: (treatment: DMSO) 4.96 ± 0.24; (treatment: MLN4924 1 uM, 8 h) 5.09 ± 0.2.

On to PFPLGASAQNGLASSLPAEVHSLT [PLAGL1], for which the protein stability index is 3.94 ± 0.089 (treatment: DMSO) and 4.09 ± 0.16 (treatment: MLN4924 1 uM, 8 h).

As to PGEWLELLLEPGSLYILRGSARYD [ALKBH7], the protein stability index amounted to 3.2 ± 0.38 (treatment: DMSO) and 3.08 ± 0.51 (treatment: MLN4924 1 uM, 8 h).

Turning to PGGITSHQLLGLFPSTSYNARLQA [TNXB], the protein stability index is 2.98 ± 0.084 (treatment: DMSO) and 3.02 ± 0.085 (treatment: MLN4924 1 uM, 8 h).

PGIDIREDLAQKLNLEEDRIQIWF [HESX1] yielded a protein stability index (treatment: DMSO) of 2.55 ± 0.56 and a protein stability index (treatment: MLN4924 1 uM, 8 h) of 2.43 ± 0.41.

PGPMGPPGPPGPTGVPGSPGHIGP [EMID1]: the protein stability index by setting is: (treatment: DMSO) 4.82 ± 0.4; (treatment: MLN4924 1 uM, 8 h) 5.18 ± 0.34.

As to PGQHLSDYSQLNESTTKESSEASQ [FBXO34], the protein stability index stood at 5.47 ± 0.28 (treatment: DMSO) and 5.6 ± 0.24 (treatment: MLN4924 1 uM, 8 h).

Take PGRPARLDQLLDMPAAGLAVQLRH [SPSB4]: the protein stability index was found to be 3.04 ± 0.36 (treatment: DMSO) and 3.33 ± 0.27 (treatment: MLN4924 1 uM, 8 h).

PGYLPGAMPPYGQGPPMVPPYQGG [ZNF207]: the protein stability index is, setting by setting: (treatment: DMSO) 3.57 ± 0.2; (treatment: MLN4924 1 uM, 8 h) 3.42 ± 0.2.

Turning to PHCSDLMPSGSEEKILRELSEEEE [KCNA4], the protein stability index is, setting by setting: (treatment: DMSO) 5.64 ± 0.23; (treatment: MLN4924 1 uM, 8 h) 5.56 ± 0.24.

Consider PKEATVMCEQCDVFYCDPCRLRCH [TRIM9], for which the protein stability index is, setting by setting: (treatment: DMSO) 3.65 ± 0.28; (treatment: MLN4924 1 uM, 8 h) 3.82 ± 0.42.

PKMLVDLLSQKKTISFLGCAIQMF [OR10K2]: the protein stability index is 2.84 ± 0.58 (treatment: DMSO) and 2.93 ± 0.62 (treatment: MLN4924 1 uM, 8 h).

Turning to PKNDNVVIPECAHGGLYKPVQCHP [SMOC2], the protein stability index runs as follows: (treatment: DMSO) 3.44 ± 0.15; (treatment: MLN4924 1 uM, 8 h) 3.6 ± 0.36.

For PLLGVKGDGKSKKKQAGRPKGSKG [RBBP5], the protein stability index came to 4.88 ± 0.15 (treatment: DMSO) and 4.88 ± 0.35 (treatment: MLN4924 1 uM, 8 h).

With PLTSVCYPQDLPRPLRSREFPQFE [TRAF3IP2], the protein stability index is 3.75 ± 0.27 (treatment: DMSO) and 3.62 ± 0.4 (treatment: MLN4924 1 uM, 8 h).

On to PLVTAIEIVSIWILSFILAIPEAI [EDNRA], for which the protein stability index reads like this: (treatment: DMSO) 3.48 ± 0.8; (treatment: MLN4924 1 uM, 8 h) 3.68 ± 0.15.

As for PMENLEKQLICPICLEMFTKPVVI [TRIM63], the protein stability index (treatment: DMSO) is 2.43 ± 0.089 and the protein stability index (treatment: MLN4924 1 uM, 8 h) was determined as 2.38 ± 0.36.

Consider PMQKLQDLVNRTPWKKCCFSGDGE [RBBP5], for which the protein stability index (treatment: DMSO) worked out at 2.84 ± 0.15 and the protein stability index (treatment: MLN4924 1 uM, 8 h) was 2.94 ± 0.071.

In the case of PMTPEDPSFWDCFCFTEEIPIRNG [AASDHPPT], the protein stability index is, setting by setting: (treatment: DMSO) 3.56 ± 0.093; (treatment: MLN4924 1 uM, 8 h) 3.67 ± 0.2.

PMVTSPREEQQLLASTSKPVVKLL [KCTD13]: the protein stability index by setting is: (treatment: DMSO) 4.26 ± 0.32; (treatment: MLN4924 1 uM, 8 h) 4.25 ± 0.11.

Regarding PPAMPPPATHLSPALAPVPRNSCI [TRIM9], the protein stability index is 4.39 ± 0.13 (treatment: DMSO) and 4.38 ± 0.17 (treatment: MLN4924 1 uM, 8 h).

As to PPPCKFGEGKLSKRLKHKDDSVMK [C22orf31], the protein stability index runs as follows: (treatment: DMSO) 4.51 ± 0.15; (treatment: MLN4924 1 uM, 8 h) 4.61 ± 0.06.

Turning to PPPPPPAQTFLFQGQPVVNRPLSL [TRADD], the protein stability index runs as follows: (treatment: DMSO) 3.71 ± 0.4; (treatment: MLN4924 1 uM, 8 h) 3.99 ± 0.29.

Consider PQHAADTPKSGEPRVPEEAAQDRP [YJU2B], for which the protein stability index came out at 5.62 ± 0.26 (treatment: DMSO) and 5.42 ± 0.26 (treatment: MLN4924 1 uM, 8 h).

As to PRVLTLSERPLDFLDLERPPTTPQ [MFF], the protein stability index reads like this: (treatment: DMSO) 4.26 ± 0.19; (treatment: MLN4924 1 uM, 8 h) 4.53 ± 0.41.

As to PSDDLTLLESSSSYKNLTLKFHKL [MCOLN1], the protein stability index reads like this: (treatment: DMSO) 3.24 ± 0.21; (treatment: MLN4924 1 uM, 8 h) 3.31 ± 0.24.

Take PSEKKVAIIRTPPKSPATPKQLRL [MAP2]: the protein stability index (treatment: DMSO) stood at 4.2 ± 0.15 and the protein stability index (treatment: MLN4924 1 uM, 8 h) came out at 4.28 ± 0.15.

PSGAGKTVVGVPSGKVSSSSSSLG [ZC2HC1A] returned a protein stability index (treatment: DMSO) of 4.47 ± 0.35 and a protein stability index (treatment: MLN4924 1 uM, 8 h) of 4.65 ± 0.14.

On to PSIIPQEDPSQQFLQQSLERVYSL [INTS4], for which the protein stability index runs as follows: (treatment: DMSO) 3.58 ± 0.17; (treatment: MLN4924 1 uM, 8 h) 3.58 ± 0.28.

On to PSNTGSRTTSVRCRGIPRGPVRPA [NEK8], for which the protein stability index stood at 3.89 ± 0.089 (treatment: DMSO) and 4 ± 0.17 (treatment: MLN4924 1 uM, 8 h).

On to PSWAALNSSTWGSLKQALKGLSVE [SNX8], for which the protein stability index was 2.94 ± 0.17 (treatment: DMSO) and 3.46 ± 0.29 (treatment: MLN4924 1 uM, 8 h).
